Results: the supplement of paper PMC10567573

B1: FBF1 (parent)
chain: QLQCSPAELQAELLHSQARLAELE

Variants of: B1
Assay: protein stability index of a GFP-peptide fusion (GPS, HEK-293T) (PSI 1-6); higher = more stable
Settings: c terminus: a fixed tail appended
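Note: lentivirally expressed fusions sorted by FACS into six bins by GFP to DsRed ratio, PSI derived from sequencing read proportions per bin multiplied by bin number.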

| Variant | protein stability index |
| --- | --- |
| E8V | 2.18 |
| E8C | 1.72 |
| E8I | 2.28 |
| E8F | 2.13 |
| E8Y | 2.25 |
| E8R | 2.33 |
| E8N | 2.84 |
| E8K | 2.79 |
| E8M | 2.06 |
| E8H | 2.48 |
| E8L | 2.27 |
| E8P | 3.86 |
| E8T | 2.41 |
| E8S | 2.17 |
| E8W | 1.79 |
| E8A | 1.66 |
| E8D | 2.55 |
| E8Q | 2.67 |
| E8G | 2.76 |
| L9Q | 4.62 |
| L9N | 4.92 |
| L9I | 4.14 |
| L9T | 4.45 |
| L9G | 4.96 |

| Variant | protein stability index |
| --- | --- |
| L9R | 4.51 |
| L9P | 4.79 |
| L9Y | 4.64 |
| L9E | 5.3 |
| L9S | 5.05 |
| L9W | 4.52 |
| L9F | 4.1 |
| L9K | 4.57 |
| L9A | 4.79 |
| L9H | 4.18 |
| L9M | 4.3 |
| L9V | 4.4 |
| L9D | 5.05 |
| L9C | 3.85 |
| A11C | 3.89 |
| A11P | 4.43 |
| A11L | 1.71 |
| A11R | 2.62 |
| A11I | 2.24 |
| A11Y | 2.3 |
| A11G | 4.24 |
| A11W | 2.59 |
| A11T | 3.37 |
| A11K | 3.04 |

| Variant | protein stability index |
| --- | --- |
| A11S | 2.77 |
| A11N | 3.1 |
| A11D | 2.94 |
| A11F | 2.41 |
| A11E | 4.26 |
| A11M | 2.01 |
| A11Q | 3.28 |
| A11H | 3.38 |
| A11V | 2.87 |
| A7G | 2.52 |
| A7C | 2.74 |
| A7V | 3.07 |
| A7I | 2.94 |
| A7Y | 1.82 |
| A7S | 3.62 |
| A7T | 2.78 |
| A7P | 3.79 |
| A7F | 2.57 |
| A7H | 2.57 |
| A7D | 3.66 |
| A7L | 2.37 |
| A7M | 2.36 |
| A7E | 3.4 |
| A7W | 2.92 |

| Variant | protein stability index |
| --- | --- |
| A7N | 3.39 |
| A7Q | 3.27 |
| A7R | 3.06 |
| A7K | 2.9 |
| A18V | 2.98 |
| A18W | 2.18 |
| A18G | 4.23 |
| A18M | 2.77 |
| A18D | 4.03 |
| A18H | 2.85 |
| A18R | 3.24 |
| A18C | 3.27 |
| A18Y | 2.81 |
| A18E | 3.95 |
| A18I | 3.13 |
| A18T | 3.42 |
| A18F | 2.82 |
| A18L | 2.68 |
| A18N | 3.12 |
| A18Q | 3.66 |
| A18K | 2.77 |
| A18P | 3.96 |
| A18S | 3.69 |
| L20E | 4.63 |

| Variant | protein stability index |
| --- | --- |
| L20D | 4.91 |
| L20C | 3.35 |
| L20F | 3.37 |
| L20A | 4.91 |
| L2S | 3.96 |
| L2R | 2.59 |
| L2W | 2.75 |
| L2V | 3.68 |
| L2T | 2.94 |
| L2Y | 3.35 |
| H15A | 3.78 |
| H15T | 3.56 |
| H15I | 1.87 |
| H15L | 2.27 |
| H15Q | 3.71 |
| H15V | 2.85 |
| H15E | 3.81 |
| H15S | 2.52 |
| H15D | 3.28 |
| H15Y | 1.92 |
| H15R | 2.73 |
| H15P | 4.91 |
| H15M | 2.22 |
| H15G | 4.04 |

| Variant | protein stability index |
| --- | --- |
| H15F | 1.84 |
| H15N | 2.81 |
| H15K | 3.49 |
| H15W | 2.65 |
| H15C | 2.88 |
| C4R | 3.94 |
| C4A | 3.99 |
| C4G | 3.32 |
| C4N | 3.26 |
| C4H | 3.15 |
| C4I | 2.93 |
| C4V | 2.96 |
| C4E | 4.39 |
| C4T | 3.49 |
| C4L | 3.92 |
| C4F | 3.14 |
| C4Y | 3.77 |
| C4Q | 3.92 |
| C4M | 3.82 |
| C4S | 3.82 |
| C4W | 2.82 |
| C4K | 4.23 |
| C4P | 3.65 |
| C4D | 4.22 |

| Variant | protein stability index |
| --- | --- |
| L13F | 4.25 |
| L13T | 4.7 |
| L13Y | 4.52 |
| L13C | 4.32 |
| L13R | 4.31 |
| L13K | 4.25 |
| L13M | 3.34 |
| L13N | 4.96 |
| L13D | 5.39 |
| L13H | 4.85 |
| L13G | 4.59 |
| L13Q | 5.08 |
| L13V | 4.2 |
| L13P | 4.73 |
| L13A | 4.28 |
| L13I | 4.62 |
| L13S | 4.74 |
| L13W | 4.13 |
| L13E | 4.25 |
| S5Y | 3.01 |
| S5Q | 3.69 |
| S5F | 2.87 |
| S5E | 3.25 |
| S5T | 3.85 |

| Variant | protein stability index |
| --- | --- |
| S5D | 2.74 |
| S5R | 2.66 |
| S5P | 3.67 |
| S5H | 3.01 |
| S5W | 2.64 |
| S5V | 3.03 |
| S5A | 3.48 |
| S5N | 2.94 |
| S5M | 3.23 |
| S5L | 3.13 |
| S5G | 2.79 |
| S5C | 3.03 |
| S5K | 3.23 |
| S5I | 3.25 |
| P6K | 4 |
| P6S | 3.26 |
| P6Q | 2.84 |
| P6T | 3.66 |
| P6R | 3.1 |
| P6H | 2.19 |
| P6V | 2.44 |
| P6E | 2.6 |
| P6A | 2.85 |
| P6I | 2.44 |

| Variant | protein stability index |
| --- | --- |
| P6Y | 2.14 |
| P6W | 2.51 |
| P6C | 2.17 |
| P6N | 3.47 |
| P6F | 2.28 |
| P6G | 2.24 |
| P6L | 2.43 |
| P6M | 2.31 |
| P6D | 3.56 |
| R19V | 2.55 |
| R19Q | 2.94 |
| R19N | 4.2 |
| R19K | 3.05 |
| R19C | 2.84 |
| R19M | 1.97 |
| R19I | 1.99 |
| R19D | 4.27 |
| R19F | 2.12 |
| R19T | 3.88 |
| R19S | 4.45 |
| R19P | 4.61 |
| R19W | 2.12 |
| R19H | 3.34 |
| R19G | 4.16 |

| Variant | protein stability index |
| --- | --- |
| R19E | 2.89 |
| R19Y | 1.89 |
| R19A | 2.6 |
| R19L | 1.79 |
| L14K | 3.72 |
| L14C | 3.3 |
| L14M | 2.93 |
| L14D | 4.88 |
| L14R | 3.33 |
| L14V | 4.08 |
| L14W | 2.93 |
| L14P | 4.8 |
| L14I | 3.83 |
| L14Y | 3.21 |
| L14T | 3.61 |
| L14F | 3.27 |
| L14N | 2.85 |
| L14Q | 3.59 |
| L14G | 4.5 |
| L14E | 4.39 |
| L14A | 2.89 |
| L14S | 3.67 |
| L14H | 3.94 |
| Q3S | 3.53 |

| Variant | protein stability index |
| --- | --- |
| Q3F | 2.11 |
| Q3M | 2.59 |
| Q3A | 3.13 |
| Q3N | 2.81 |
| Q3P | 3.01 |
| Q3L | 3.35 |
| Q3V | 3.1 |
| Q3Y | 2.12 |
| Q3R | 3.21 |
| Q3E | 3.54 |
| Q3K | 2.19 |
| Q3I | 2.69 |
| Q3H | 2.6 |
| Q3C | 2.53 |
| Q3D | 3.1 |
| Q3T | 3.48 |
| Q3G | 3.25 |
| Q3W | 2.62 |
| S16L | 3.91 |
| S16F | 3.78 |
| S16G | 4.86 |
| S16W | 3.35 |
| S16N | 4.33 |
| S16H | 4.46 |

| Variant | protein stability index |
| --- | --- |
| S16V | 4.15 |
| S16P | 4.17 |
| S16A | 2.88 |
| S16I | 2.81 |
| S16K | 3.9 |
| S16D | 5.03 |
| S16Q | 4.06 |
| S16T | 2.95 |
| S16Y | 3.49 |
| S16R | 4.02 |
| S16E | 4.81 |
| S16C | 4.23 |
| S16M | 3.33 |
| Q10F | 1.79 |
| Q10G | 3.85 |
| Q10D | 5.13 |
| Q10A | 2.93 |
| Q10S | 3.7 |
| Q10H | 3.1 |
| Q10Y | 1.89 |
| Q10I | 2.04 |
| Q10N | 3.54 |
| Q10C | 2.45 |
| Q10V | 2.56 |

| Variant | protein stability index |
| --- | --- |
| Q10L | 2.17 |
| Q10E | 3.95 |
| Q10K | 3.74 |
| Q10M | 2.29 |
| Q10P | 4.69 |
| Q10T | 3.91 |
| Q10R | 2.56 |
| Q10W | 2.21 |
| E12T | 3.62 |
| E12Q | 2.67 |
| E12D | 3.33 |
| E12M | 3.49 |
| E12I | 2.57 |
| E12C | 3.05 |
| E12R | 3.59 |
| E12A | 2.47 |
| E12S | 2.94 |
| E12H | 2.41 |
| E12K | 3.38 |
| E12N | 3.18 |
| E12L | 2.75 |
| E12Y | 3.22 |
| E12W | 1.64 |
| E12G | 3.65 |

| Variant | protein stability index |
| --- | --- |
| E12F | 3.56 |
| E12P | 4.04 |
| E12V | 3.17 |
| Q17L | 2.92 |
| Q17P | 4.52 |
| Q17N | 4.25 |
| Q17F | 3.26 |
| Q17K | 4.11 |
| Q17I | 3.07 |
| Q17H | 4.31 |
| Q17W | 3.16 |
| Q17C | 3.62 |
| Q17D | 4.55 |
| Q17R | 3.68 |
| Q17A | 3.4 |
| Q17M | 3.65 |
| Q17T | 3.97 |
| Q17G | 3.74 |
| Q17V | 3.44 |
| Q17Y | 3.52 |
| Q17E | 3.77 |
| Q17S | 3.98 |
